Reference: patent US11034762 (CENTIVAX, dated 2021)
Numbering of substitutions follows the chain as printed.

B1: COVID19_P21_F08 (scFv, V domains shown)
VH: QVQLVQSGAEVKKPGSSVKVSCKASGGTFSTYAFNWVRQAPGQGLEWMGVINTGGGSVTYAQKFQGRVTITADESTSTAYMELSSLRSEDTAVYYCAGGSGISTPGAVWGQGTLVTVSS
VL: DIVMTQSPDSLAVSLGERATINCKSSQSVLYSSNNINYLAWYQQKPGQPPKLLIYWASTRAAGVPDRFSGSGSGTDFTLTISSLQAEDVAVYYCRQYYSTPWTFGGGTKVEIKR
B2: COVID19_P09_D06 (scFv, V domains shown)
VH: QVQLVQSGAEVKKPGSSVKVSCKASGYGFITYWIGWVRQAPGQGLEWMGIIYPGDSETRYAQKFQGRVTITADESTSTAYMELSSLRSEDTAVYYCAGGSGIYVPMDVWGQGTLVTVSS
VL: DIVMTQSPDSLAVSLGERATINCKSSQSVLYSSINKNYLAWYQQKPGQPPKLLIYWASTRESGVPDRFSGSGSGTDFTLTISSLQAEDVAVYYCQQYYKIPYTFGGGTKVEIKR
B3: COVID19_P22_B04 (scFv, V domains shown)
VH: B2 VH with S100E, Y103S, V104T
VL: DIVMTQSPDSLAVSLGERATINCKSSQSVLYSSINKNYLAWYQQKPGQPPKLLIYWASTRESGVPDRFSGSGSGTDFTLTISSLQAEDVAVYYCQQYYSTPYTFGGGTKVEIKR
B4: COVID19_P22_G12 (scFv, V domains shown)
VH: B2 VH with Y27G, A61S, Y103S, V104T
VL: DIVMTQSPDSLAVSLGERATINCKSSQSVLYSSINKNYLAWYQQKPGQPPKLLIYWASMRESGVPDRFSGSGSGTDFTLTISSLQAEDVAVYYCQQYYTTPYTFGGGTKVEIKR
B5: COVID19_P21_H01 (scFv, V domains shown)
VH: B2 VH with I30S, I50W, Y52N, G54N, D55S, S56G, E57G, R59N, Y103S, V104T
VL: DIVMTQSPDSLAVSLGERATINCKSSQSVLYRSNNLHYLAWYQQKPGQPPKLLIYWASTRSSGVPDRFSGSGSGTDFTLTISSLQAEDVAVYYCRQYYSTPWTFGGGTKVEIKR
B6: COVID19_P22_C09 (scFv, V domains shown)
VH: QVQLVQSGAEVKKPGSSVKVSCKASGYNFTDYHIQWVRQAPGQGLEWVGMIIPRHGGTAYAQRFQGRVTITADESTSTAYMELSSLRSEDTAVYYCAGGSGLTTPMDVWGQGTLVTVSS
VL: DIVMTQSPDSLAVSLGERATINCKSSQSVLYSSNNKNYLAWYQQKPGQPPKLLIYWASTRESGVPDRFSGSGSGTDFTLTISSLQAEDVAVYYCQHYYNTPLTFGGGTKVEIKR
B7: COVID19_P09_G02 (scFv, V domains shown)
VH: QVQLVQSGAEVKKPGSSVKVSCKASGGTFSSYAISWVRQAPGQGLEWMGIIYPGDSTTNYSQKFQGRVTITADESTSTAYMELSSLRSEDTAVYYCAGHWGISTPMDVWGQGTLVTVSS
VL: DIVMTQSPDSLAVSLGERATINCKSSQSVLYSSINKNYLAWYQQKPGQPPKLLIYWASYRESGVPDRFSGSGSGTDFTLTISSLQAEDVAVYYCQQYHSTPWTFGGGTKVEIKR
B8: COVID19_P22_B12 (scFv, V domains shown)
VH: B7 VH with F29L, T57E, N59R, H99G, W100S, M106R, D107S
VL: DIVMTQSPDSLAVSLGERATINCKSSRILSYSPDNKNYLAWYQQKPGQPPKLLIYWASTRESGVPDRFSGSGSGTDFTLTISSLQAEDVAVYYCQQSYITPYTFGGGTKVEIKR
B9: COVID19_P21_F04 (scFv, V domains shown)
VH: B7 VH with I50Q, Y52N, G54S, D55G, S56D, T57S, N59R, S61A, H99G, W100S
VL: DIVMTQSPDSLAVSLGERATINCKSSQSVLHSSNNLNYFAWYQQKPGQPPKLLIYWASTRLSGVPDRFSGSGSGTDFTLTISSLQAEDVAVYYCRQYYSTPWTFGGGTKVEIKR
B10: COVID19_P21_A12 (scFv, V domains shown)
VH: B7 VH with I50S, I51V, Y52I, G54V, D55F, S56G, T57R, T58P, S61A, H99E
VL: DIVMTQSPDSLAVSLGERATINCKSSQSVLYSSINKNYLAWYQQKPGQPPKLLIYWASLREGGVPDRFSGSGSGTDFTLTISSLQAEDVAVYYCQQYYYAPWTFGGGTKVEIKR
B11: COVID19_P21_B08 (scFv, V domains shown)
VH: B1 VH with T31S, F34I, N35S, G99H, S100W, G106M, A107D
VL: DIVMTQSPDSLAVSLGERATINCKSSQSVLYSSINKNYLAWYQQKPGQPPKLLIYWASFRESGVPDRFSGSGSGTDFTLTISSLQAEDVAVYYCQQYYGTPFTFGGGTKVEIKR
B12: COVID19_P09_E05 (scFv, V domains shown)
VH: B7 VH with N59R, A97Y, G98S, H99G, W100S
VL: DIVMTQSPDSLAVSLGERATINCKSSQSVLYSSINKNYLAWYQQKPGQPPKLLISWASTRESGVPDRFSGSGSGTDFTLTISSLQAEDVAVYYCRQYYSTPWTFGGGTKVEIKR
B13: COVID19_P09_A09 (scFv, V domains shown)
VH: B7 VH with N59R, A97Y, G98S, H99G, W100S
VL: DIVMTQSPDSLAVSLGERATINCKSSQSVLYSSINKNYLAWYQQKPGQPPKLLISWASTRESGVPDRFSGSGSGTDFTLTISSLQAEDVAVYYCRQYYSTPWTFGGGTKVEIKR
B14: COVID19_P10_B06 (scFv, V domains shown)
VH: B7 VH with N59R, A97Y, G98S, H99G, W100S
VL: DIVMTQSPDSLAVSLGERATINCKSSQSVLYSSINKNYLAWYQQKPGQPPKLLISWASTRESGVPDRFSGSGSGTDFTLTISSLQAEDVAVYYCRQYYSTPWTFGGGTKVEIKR

Tests used:
[1] = molecular target: T1, MERS Receptor Binding Domain (RBD) protein (MERS virus, UniProt K9N5Q8 367-606); assay: SPR; clone listed as COV2 only at the 21st table, row 35, column 3
T1 construct: also called Middle East Respiratory Syndrome (MERS) virus
T1 sequence: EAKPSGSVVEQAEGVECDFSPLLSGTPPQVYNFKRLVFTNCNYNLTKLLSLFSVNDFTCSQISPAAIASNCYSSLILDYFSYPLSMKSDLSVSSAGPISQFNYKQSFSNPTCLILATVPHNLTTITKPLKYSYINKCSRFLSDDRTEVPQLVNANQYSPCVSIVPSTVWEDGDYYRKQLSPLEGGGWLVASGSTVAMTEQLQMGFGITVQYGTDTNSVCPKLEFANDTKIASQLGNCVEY

[2] = molecular target: T2, SARS-CoV-1 Receptor Binding Domain (RBD) protein (SARS-CoV-1, UniProt P59594 306-527); assay: as above
T2 construct: also called SARS1

[3] = molecular target: SARS-CoV-2 Receptor Binding Domain (RBD) protein (SARS-CoV-2, UniProt P0DTC2 319-541)
[4] = molecular target: T1, MERS Receptor Binding Domain (RBD) …; assay: SPR; clone listed as COV2 only at the 21st table, row 45, column 3
[5] = molecular target: T2, SARS-CoV-1 Receptor Binding Domain …; assay: as above
[6] = molecular target: T1, MERS Receptor Binding Domain (RBD) …; assay: SPR; clone listed as COV2 only at the 21st table, row 43, column 3
[7] = molecular target: T2, SARS-CoV-1 Receptor Binding Domain …; assay: as above
[8] = molecular target: T1, MERS Receptor Binding Domain (RBD) …; assay: SPR; clone listed as COV2 only at the 21st table, row 8, column 3
[9] = molecular target: T2, SARS-CoV-1 Receptor Binding Domain …; assay: as above
[10] = molecular target: T1, MERS Receptor Binding Domain (RBD) …; assay: SPR; clone listed as COV2 only at the 21st table, row 51, column 3
[11] = molecular target: T2, SARS-CoV-1 Receptor Binding Domain …; assay: as above
[12] = molecular target: T1, MERS Receptor Binding Domain (RBD) …; assay: SPR; clone listed as COV2 only at the 21st table, row 52, column 3
[13] = molecular target: T2, SARS-CoV-1 Receptor Binding Domain …; assay: as above
[14] = molecular target: T1, MERS Receptor Binding Domain (RBD) …; assay: SPR; clone listed as COV2 only at the 21st table, row 28, column 3
[15] = molecular target: T2, SARS-CoV-1 Receptor Binding Domain …; assay: as above
[16] = molecular target: T1, MERS Receptor Binding Domain (RBD) …; assay: SPR; clone listed as COV2 only at the 21st table, row 37, column 3
[17] = molecular target: T2, SARS-CoV-1 Receptor Binding Domain …; assay: as above
[18] = molecular target: T1, MERS Receptor Binding Domain (RBD) …; assay: SPR; clone listed as COV2 only at the 21st table, row 32, column 3
[19] = molecular target: T2, SARS-CoV-1 Receptor Binding Domain …; assay: as above
[20] = molecular target: T1, MERS Receptor Binding Domain (RBD) …; assay: SPR; clone listed as COV2 only at the 21st table, row 33, column 3
[21] = molecular target: T2, SARS-CoV-1 Receptor Binding Domain …; assay: as above
[22] = molecular target: T1, MERS Receptor Binding Domain (RBD) …; assay: SPR; clone listed as COV2 only at the 21st table, row 34, column 3
[23] = molecular target: T2, SARS-CoV-1 Receptor Binding Domain …; assay: as above
[24] = molecular target: T1, MERS Receptor Binding Domain (RBD) …; assay: SPR; clone listed as COV2 only at the 21st table, row 29, column 3
[25] = molecular target: T2, SARS-CoV-1 Receptor Binding Domain …; assay: as above
[26] = molecular target: T1, MERS Receptor Binding Domain (RBD) …; assay: SPR; clone listed as COV2 only at the 21st table, row 36, column 3
[27] = molecular target: T2, SARS-CoV-1 Receptor Binding Domain …; assay: as above
[28] = molecular target: T1, MERS Receptor Binding Domain (RBD) …; assay: SPR; clone listed as COV2 only at the 21st table, row 30, column 3
[29] = molecular target: T2, SARS-CoV-1 Receptor Binding Domain …; assay: as above

Binder	Kd [3]	koff [3]	kon [3]	further results
B1	16.3 nM	0.000893 s⁻¹	54900 M⁻¹ s⁻¹	binding result [1]: no binding (tested: up to 300 nM); binding result [2]: no binding (tested: up to 300 nM)
B2	16.4 nM	0.00538 s⁻¹	328000 M⁻¹ s⁻¹	binding result [4]: no binding (tested: up to 300 nM); binding result [5]: no binding (tested: up to 300 nM)
B3	26.1 nM	0.015 s⁻¹	570000 M⁻¹ s⁻¹	binding result [6]: no binding (tested: up to 300 nM); binding result [7]: no binding (tested: up to 300 nM)
B4	38.3 nM	0.016 s⁻¹	410000 M⁻¹ s⁻¹	binding result [8]: no binding (tested: up to 300 nM); binding result [9]: no binding (tested: up to 300 nM)
B5	1.38 nM	0.00022 s⁻¹	160000 M⁻¹ s⁻¹	binding result [10]: no binding (tested: up to 300 nM); binding result [11]: no binding (tested: up to 300 nM)
B6	32.8 nM	0.0083 s⁻¹	250000 M⁻¹ s⁻¹	binding result [12]: no binding (tested: up to 300 nM); binding result [13]: no binding (tested: up to 300 nM)
B7	1.92 nM	0.000262 s⁻¹	136000 M⁻¹ s⁻¹	binding result [14]: no binding (tested: up to 300 nM); binding result [15]: no binding (tested: up to 300 nM)
B8	4.24 nM	0.00036 s⁻¹	85000 M⁻¹ s⁻¹	binding result [16]: no binding (tested: up to 300 nM); binding result [17]: no binding (tested: up to 300 nM)
B9	8.81 nM	0.00037 s⁻¹	41900 M⁻¹ s⁻¹	binding result [18]: no binding (tested: up to 300 nM); binding result [19]: no binding (tested: up to 300 nM)
B10	6.01 nM	0.000911 s⁻¹	152000 M⁻¹ s⁻¹	binding result [20]: no binding (tested: up to 300 nM); binding result [21]: no binding (tested: up to 300 nM)
B11	2.95 nM	0.000344 s⁻¹	117000 M⁻¹ s⁻¹	binding result [22]: no binding (tested: up to 300 nM); binding result [23]: no binding (tested: up to 300 nM)
B12	0.2 nM	5.7e-05 s⁻¹	305000 M⁻¹ s⁻¹	binding result [24]: no binding (tested: up to 300 nM); binding result [25]: no binding (tested: up to 300 nM)
B13	0.5 nM	5.7e-05 s⁻¹	109000 M⁻¹ s⁻¹	binding result [26]: no binding (tested: up to 300 nM); binding result [27]: no binding (tested: up to 300 nM)
B14	0.29 nM	5.7e-05 s⁻¹	200000 M⁻¹ s⁻¹	binding result [28]: no binding (tested: up to 300 nM); binding result [29]: no binding (tested: up to 300 nM)
